The values below are quoted from earlier work in PMC5580684.

Several values for one entry are separate records, joined by “and”; a condition that tells them apart may be missing. Equal entries are not always repeated.

The target in the series is DNA polymerase beta (Homo sapiens) (UniProt P06746).

A word on the Kd: it is the free concentration of one partner at which half of the binding sites on the other are occupied at equilibrium, for simple one-to-one binding. With XRCC1 NTD (from UniProt P18887), the Kd is 300 µM and 100 µM.
